Assay results from US20120027757A1.

Assays:
[1] = target: IR (insulin receptor) expressed on Sf9 insect cells infected with baculovirus (UniProt P06213); assay: flow cytometry on Sf9 insect cells expressing IR
[2] = target: IGF-IR expressed on Sf9 insect cells infected with baculovirus (UniProt P08069); assay: flow cytometry on Sf9 insect cells expressing IGF-IR

Anti-IGF-IR (αIR3) (antibody) showed an MFI (Mean fluorescence intensity) [1] of 32 and an MFI (Mean fluorescence intensity) [2] of 35.
